Measurements taken from patent US20220017635A1 (Kyowa Kirin, published 2022).
Changes are numbered by the printed parent chain. Names and notes keep the numbering of the source. Blank lines part the entries; values can stand above or below the binder they belong to.

Assays:
human EGFR on cells [1] = target: T1, human EGFR on cells (human, UniProt P00533 25-1210); assay: flow cytometry on OE21 cells; x axis PE-A [E]
T1 construct: also called membrane-associated EGFR on OE21 cells

[2] = target: T2, huTfR with mouse protease-like domain (human/mouse chimera); assay: ELISA on immobilized chimeric TfR; grade = binding relative to His-huTfR (++ 0.5 or more, + 0.2 to less than 0.5)
T2 construct: His tag added; also called chimeric protein of human TfR extracellular domain with mouse protease-like domain
T2 chain: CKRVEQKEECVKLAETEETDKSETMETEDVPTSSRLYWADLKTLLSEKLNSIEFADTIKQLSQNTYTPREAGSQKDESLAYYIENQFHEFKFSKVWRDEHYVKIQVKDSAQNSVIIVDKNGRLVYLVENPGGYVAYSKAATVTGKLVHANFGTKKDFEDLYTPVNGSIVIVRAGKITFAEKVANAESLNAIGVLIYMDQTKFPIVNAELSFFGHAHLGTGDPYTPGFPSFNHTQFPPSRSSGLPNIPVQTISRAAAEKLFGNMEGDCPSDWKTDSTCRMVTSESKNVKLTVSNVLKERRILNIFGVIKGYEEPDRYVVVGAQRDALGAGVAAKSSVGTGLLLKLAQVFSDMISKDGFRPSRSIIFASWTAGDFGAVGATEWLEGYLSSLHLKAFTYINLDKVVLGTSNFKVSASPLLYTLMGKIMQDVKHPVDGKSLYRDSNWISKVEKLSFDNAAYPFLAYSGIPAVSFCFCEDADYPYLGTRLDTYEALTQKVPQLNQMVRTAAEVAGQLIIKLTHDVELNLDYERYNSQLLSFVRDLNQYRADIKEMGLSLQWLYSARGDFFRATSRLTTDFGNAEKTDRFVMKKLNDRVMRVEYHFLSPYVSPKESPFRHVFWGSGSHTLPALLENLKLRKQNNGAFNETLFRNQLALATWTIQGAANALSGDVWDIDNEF
Protocol: (§1) ELISA was carried out by the following method. To a 96-well immunoplate (NUNC, Inc.) on which an antigen protein was immobilized, 1% (w/v) BSA-PBS(−) pH 7.0 without KCl (hereinafter referred to as blocking solution, Nacalai Tesque, Inc.) was added to perform blocking at room temperature, and thereafter, the anti-TfR antibody diluted with the same solution was added thereto and a reaction was allowed to proceed at room temperature for 1 hour. Thereafter, washing was performed with 0.05% (w/v)-tPBS (1×) without KCl (pH 7.2) (hereinafter referred to as washing solution, Nacalai Tesque, Inc.), Anti-Human IgG (Fc) Goat IgG Fab″-HRP (IBL, Inc.) diluted with the blocking solution was added thereto, and a reaction was allowed to proceed at room temperature for 1 hour. Thereafter, washing was performed with the washing solution, and 1-Step (registered trademark) Ultra TMB-ELISA Substrate Solution (Thermo, Inc.) was added thereto, and a reaction was allowed to proceed at room temperature. The coloring reaction was stopped by adding a 5 N HCl solution, and an absorbance at a wavelength of 450 nm (reference wavelength: 570 nm) was measured using a plate reader (EPOCH 2: BioTek Instruments, Inc.).
(§2) Further, a value obtained by subtracting the absorbance at the reference wavelength of 570 nm from the absorbance at a wavelength of 450 nm was regarded as the binding activity to any of various types of antigen proteins, and a case where a value obtained by dividing the binding activity to any of various types of chimeric TfR by the binding activity to His-huTfR was 0.5 or more was denoted by ++, a case where the value was 0.2 or more and less than 0.5 was denoted by +, and a case where the value was less than 0.2 was denoted by −.

mouse TfR on CHO cells = target: T3, mouse TfR on CHO cells (mouse, UniProt Q62351 1-763); assay: flow cytometry on mouse TfR/CHO cells
T3 construct: also called mouse TfR/CHO
Protocol: Subsequently, an epitope analysis for various types of TfR antibodies was carried out.

human TfR on cells = target: T4, human TfR on cells (human, UniProt P02786 1-760); assay: flow cytometry of monoclonal phage (scFv) on human TfR/CHO cells
T4 construct: also called human TfR/CHO; human TfFR/CHO cells
Protocol: (§3) After the reaction was allowed to proceed under 4° C. for 30 minutes, each well was washed 3 times with PBS-T.

monkey TfR on CHO cells = target: T5, monkey TfR on CHO cells (monkey); assay: flow cytometry of monoclonal phage (scFv) on monkey TfR/CHO cells
T5 construct: also called monkey TfR/CHO cells
T5 chain: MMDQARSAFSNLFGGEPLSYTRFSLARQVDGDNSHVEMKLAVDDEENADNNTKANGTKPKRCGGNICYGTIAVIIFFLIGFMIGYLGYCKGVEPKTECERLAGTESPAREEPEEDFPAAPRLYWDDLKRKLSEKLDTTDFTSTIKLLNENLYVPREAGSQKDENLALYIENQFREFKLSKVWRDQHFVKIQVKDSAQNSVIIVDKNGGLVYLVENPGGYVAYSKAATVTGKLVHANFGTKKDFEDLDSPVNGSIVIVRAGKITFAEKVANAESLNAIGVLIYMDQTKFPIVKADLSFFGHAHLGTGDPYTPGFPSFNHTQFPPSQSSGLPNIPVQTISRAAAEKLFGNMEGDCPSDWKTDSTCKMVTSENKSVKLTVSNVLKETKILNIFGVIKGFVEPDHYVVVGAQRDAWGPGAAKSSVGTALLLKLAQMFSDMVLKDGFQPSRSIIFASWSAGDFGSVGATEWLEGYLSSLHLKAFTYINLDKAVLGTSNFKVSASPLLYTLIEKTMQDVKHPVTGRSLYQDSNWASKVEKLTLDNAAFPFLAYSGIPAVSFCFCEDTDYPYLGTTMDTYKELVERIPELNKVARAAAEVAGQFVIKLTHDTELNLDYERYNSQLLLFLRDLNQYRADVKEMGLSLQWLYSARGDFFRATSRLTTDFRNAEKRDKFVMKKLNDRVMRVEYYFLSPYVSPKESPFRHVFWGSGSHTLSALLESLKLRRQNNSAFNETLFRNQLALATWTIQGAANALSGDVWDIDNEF
Protocol: as §3

human EGFR-FLAG-Fc = target: T6, human EGFR-FLAG-Fc (human, UniProt P00533 25-638); assay: phage ELISA (scFv) on immobilized human EGFR-Fc
T6 construct: also called human EGFR-Fc
Protocol: Specifically, it was carried out by adding a phage solution diluted with PBS-T containing 10% Block Ace (manufactured by Dainippon Pharmaceutical Co., Ltd.) to a 96-well immunoplate (NUNC, Inc.) on which an antigen protein was immobilized to allow a reaction to proceed at room temperature for 1 hour, followed by washing with PBS-T, and then, adding an anti-M13 antibody (manufactured by GE Healthcare, Inc.) labeled with horseradish peroxidase diluted with 1% BSA-PBS thereto to allow a reaction to proceed at room temperature for 1 hour.
The confirmation of a clone that specifically recognizes human and monkey EGFR-Fc was carried out by the ELISA method.

monkey EGFR-FLAG-Fc = target: T7, monkey EGFR-FLAG-Fc (monkey, UniProt P55245 25-638); assay: phage ELISA (scFv) on immobilized monkey EGFR-Fc
T7 construct: also called monkey EGFR-Fc; not shown: FLAG-Fc added to the C terminus

human EGFR on cells [3] = target: T1, human EGFR on cells; assay: flow cytometry on OE21 cells; x axis Alexa Fluor 488-A [A]
human EGFR on cells [4] = target: T1, human EGFR on cells; assay: flow cytometry on OE21 cells; x axis Alexa Fluor 488-A [B]
[5] = target: T8, huTfR with mouse apical domain (human/mouse chimera, UniProt P02786 89-760); assay: ELISA on immobilized chimeric TfR
T8 construct: His tag added; also called chimeric protein of human TfR extracellular domain with mouse apical domain
T8 chain: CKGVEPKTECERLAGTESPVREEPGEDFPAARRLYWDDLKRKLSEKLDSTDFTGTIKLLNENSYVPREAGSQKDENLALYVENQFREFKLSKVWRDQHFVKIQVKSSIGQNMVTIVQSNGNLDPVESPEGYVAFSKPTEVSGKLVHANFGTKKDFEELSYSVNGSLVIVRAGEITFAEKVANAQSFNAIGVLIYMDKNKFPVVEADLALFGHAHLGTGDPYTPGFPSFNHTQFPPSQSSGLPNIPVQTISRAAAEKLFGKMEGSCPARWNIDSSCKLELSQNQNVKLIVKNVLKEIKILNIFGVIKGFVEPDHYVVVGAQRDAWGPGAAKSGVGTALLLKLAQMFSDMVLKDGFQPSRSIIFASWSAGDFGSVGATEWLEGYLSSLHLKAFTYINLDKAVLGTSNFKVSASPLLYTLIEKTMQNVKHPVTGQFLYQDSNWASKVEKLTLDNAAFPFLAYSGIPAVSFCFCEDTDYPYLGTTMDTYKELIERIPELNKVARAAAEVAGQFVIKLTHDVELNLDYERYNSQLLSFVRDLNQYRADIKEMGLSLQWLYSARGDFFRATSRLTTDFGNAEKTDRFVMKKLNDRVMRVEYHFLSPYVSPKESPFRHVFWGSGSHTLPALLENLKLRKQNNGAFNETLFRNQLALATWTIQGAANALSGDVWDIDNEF
Protocol: as §1, §2

chimeric TfR A02 = target: T9, chimeric TfR A02 (human/mouse chimera, UniProt P02786 89-760); assay: ELISA on immobilized chimeric TfR
T9 construct: also called D352S-S355A-D356R-K358N
T9 chain: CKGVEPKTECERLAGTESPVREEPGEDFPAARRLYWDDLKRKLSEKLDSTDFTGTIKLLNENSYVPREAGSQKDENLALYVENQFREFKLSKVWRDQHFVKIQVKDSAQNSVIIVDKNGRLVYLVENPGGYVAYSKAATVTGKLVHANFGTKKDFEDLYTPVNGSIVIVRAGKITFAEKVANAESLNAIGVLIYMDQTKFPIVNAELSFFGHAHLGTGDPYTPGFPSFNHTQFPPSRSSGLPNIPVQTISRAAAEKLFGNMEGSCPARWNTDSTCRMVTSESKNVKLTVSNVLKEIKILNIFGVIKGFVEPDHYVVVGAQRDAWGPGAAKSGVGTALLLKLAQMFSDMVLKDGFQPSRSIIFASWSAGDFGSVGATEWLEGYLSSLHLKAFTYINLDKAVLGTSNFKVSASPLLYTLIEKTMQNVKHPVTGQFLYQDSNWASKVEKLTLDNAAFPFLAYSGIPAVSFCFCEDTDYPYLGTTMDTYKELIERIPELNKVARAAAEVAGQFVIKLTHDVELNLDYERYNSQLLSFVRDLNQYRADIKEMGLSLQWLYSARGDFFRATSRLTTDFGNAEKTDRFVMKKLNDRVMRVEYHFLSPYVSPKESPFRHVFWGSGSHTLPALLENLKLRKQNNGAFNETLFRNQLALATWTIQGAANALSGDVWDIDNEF
Protocol: as §1, §2

chimeric TfR A07 = target: T10, chimeric TfR A07 (human/mouse chimera, UniProt P02786 89-760); assay: ELISA on immobilized chimeric TfR
T10 construct: also called M365L-V366E-E369Q
Protocol: as §1, §2

chimeric TfR A03 = target: T11, chimeric TfR A03 (human/mouse chimera, UniProt P02786 89-760); assay: ELISA on immobilized chimeric TfR; grade = binding relative to His-huTfR (++ 0.5 or more, + 0.2 to less than 0.5)
T11 construct: also called D245E-K261E
Protocol: as §1, §2

chimeric TfR A04 = target: T12, chimeric TfR A04 (human/mouse chimera, UniProt P02786 89-760); assay: as above
T12 construct: also called D245E-K261E-D356R
Protocol: as §1, §2

chimeric TfR A05 = target: T13, chimeric TfR A05 (human/mouse chimera, UniProt P02786 89-760); assay: as above
T13 construct: also called P249S-L274F
Protocol: as §1, §2

chimeric TfR A14 = target: T14, chimeric TfR A14 (human/mouse chimera, UniProt P02786 89-760); assay: as above
T14 construct: also called D204Q-K205S-E369Q
Protocol: as §1, §2

B1: KME09 (antibody, V domains shown)
VH: QVQLVQSGAEVKKPGSSVKVSCKASGGTFSSFAWGWVRQAPGQGLEWMGEIRPGFGTEIYAQNFQDRVTFITDEATSTTYMELSSLKSEDTAVYYCARGLLRSGYIDNPCDIWGQGTMVTVSS
VL: DIQMTQSPSSLSASVGDRVTITCRASQGISSWLAWYQQKPEKAPKSLIYAASSLQSGVPSRFSGSGSGTDFTLTISSLQPEDFATYFCQQYYNYPYTFGQGTKLEIK
notes: IgG4PE or IgG4PE R409K; also called anti-EGFR antibody KME09
binding result (human EGFR on cells [1]): binds

B2: TfR1007 (antibody, V domains shown)
VH: EVQLVESGGGLVQPGGSLSLSCAASGFSFKGYSMSWVRQAPGKGLEWVSSLSNGGGSSYYADSVKGRFTISRDNSKNTLYLQMNSLRAEDTAVYYCAKTLGAYYIKSAMDVWGQGTTVTVSS
VL: not shown
notes: also called anti-TfR antibody TfR1007
ratio of ELISA binding activity (A450-A570) to chimeric TfR over that to His-huTfR [2]: ≥ 0.5 ratio

B3: R327 (antibody, V domains shown)
VH: EVQLVETGGGLVQPGGSLRLSCAASGFSFDKYTMNWVRQAPGKGLEWVSVISNGGVSTDYADSVKGRFTVSRDNSKNTLYLQMNSLRAEDMATYYCARASQPWLYRTGADVWGQGTMVTVSS
VL: not shown
notes: also called anti-TfR antibody R327
binding result (mouse TfR on CHO cells): no binding
ratio of ELISA binding activity (A450-A570) to chimeric TfR over that to His-huTfR [2]: ≥ 0.5 ratio

B5: PSM4072 (antibody, V domains shown)
VH: EVQLVETGGGLVQPGGSLRLSCTASGFTFESHAMYWVRQAPGKGLEWVSGISNGGSSTEYADSVRGRFTISRDNSKNTVYLQMNSLRAEDTAVYYCARPRSPYLFYDAAGVWGQGTLVTVSS
VL: not shown
notes: as IgG it has the constant region of human IgG4PE or IgG4PE R409K; also called anti-TfR antibody PSM4072
binding result (human TfR on cells): binds
binding result (monkey TfR on CHO cells): binds

B6: cyno163 (antibody, V domains shown)
VH: B5 VH with T7S, T23A, E30S, S31T, H32Y, Y35S, L117M
VL: not shown
notes: as IgG it has the constant region of human IgG4PE or IgG4PE R409K; also called anti-TfR antibody cyno163
binding result (human TfR on cells): binds
binding result (monkey TfR on CHO cells): binds

B7: E08 (antibody, V domains shown)
VH: EVQLVESGGGLVQPGGSLRLSCAASGFSFNNNAMNWVRQAPGKGLEWVSGIRADGGTTYYADSVKGRFTISRDNSKNTLYLQMNSLRAEDTAVYFCGKTPDWEIFYYAMDAWGQGTTVTVSS
VL: not shown
notes: also called anti-EGFR antibody E08; Clone E08
binding result (human EGFR-FLAG-Fc): binds
binding result (monkey EGFR-FLAG-Fc): binds
binding result (human EGFR on cells [3]): binds

Further lines, results first:

binding result (mouse TfR on CHO cells): no binding
ratio of ELISA binding activity (A450-A570) to chimeric TfR over that to His-huTfR [2]: ≥ 0.5 ratio
B4: TfR1071 (antibody, V domains shown)
VH: B3 VH with E1Y, T7S, M117L
VL: not shown
notes: also called anti-TfR antibody TfR1071

binding result (human EGFR-FLAG-Fc): binds
binding result (monkey EGFR-FLAG-Fc): binds
binding result (human EGFR on cells [4]): binds
B8: E12 (antibody, V domains shown)
VH: QVQLVESGGGLVQPGGSLRLSCAASRFTFSAYAMGWVRQAPGKGLEWVSIIDSGGVYTYYADSMKGRFTISRDNSKNTLYLQMNSLRAEDTAVYYCARDHYGVVWGLGDYWGQGTLVTVSS
VL: not shown
notes: also called anti-EGFR antibody E12; Clone E12

binding result (mouse TfR on CHO cells): no binding
ratio of ELISA binding activity (A450-A570) to chimeric TfR over that to His-huTfR [5]: < 0.2 ratio
ratio of ELISA binding activity (A450-A570) to chimeric TfR over that to His-huTfR (chimeric TfR A02): < 0.2 ratio
ratio of ELISA binding activity (A450-A570) to chimeric TfR over that to His-huTfR (chimeric TfR A07): < 0.2 ratio
binding result (monkey TfR on CHO cells): binds
ratio of ELISA binding activity (A450-A570) to chimeric TfR over that to His-huTfR [2]: ≥ 0.5 ratio
ratio of ELISA binding activity (A450-A570) to chimeric TfR over that to His-huTfR (chimeric TfR A03): ≥ 0.5 ratio
ratio of ELISA binding activity (A450-A570) to chimeric TfR over that to His-huTfR (chimeric TfR A04): ≥ 0.5 ratio
ratio of ELISA binding activity (A450-A570) to chimeric TfR over that to His-huTfR (chimeric TfR A05): ≥ 0.5 ratio
ratio of ELISA binding activity (A450-A570) to chimeric TfR over that to His-huTfR (chimeric TfR A14): ≥ 0.5 ratio
B9: cyno292 (antibody, V domains shown)
VH: QVQLVQSGGGLVKPGGSLRISCTTSGFPFDGYTMTWVRQAPGKGLEWVSSISNGGSTIFVSDSVRGRFTISRDNAKNSLYLQMNNVGAEDTAVYYCARARDAYGWTLPSDIWGQGTMVTVSS
VL: not shown
notes: also called anti-TfR antibody cyno292
